# In paper doi:10.1101/2025.04.22.649955:
# Columns and labels:
# [1] = molecular target: SynGAP[PSD95] condensates (mCherry-SynGAP with PSD95-mGFP) (human | rat) (UniProt P31016)
# Sequence of UniProt P31016 (P31016 whole entry, looked up): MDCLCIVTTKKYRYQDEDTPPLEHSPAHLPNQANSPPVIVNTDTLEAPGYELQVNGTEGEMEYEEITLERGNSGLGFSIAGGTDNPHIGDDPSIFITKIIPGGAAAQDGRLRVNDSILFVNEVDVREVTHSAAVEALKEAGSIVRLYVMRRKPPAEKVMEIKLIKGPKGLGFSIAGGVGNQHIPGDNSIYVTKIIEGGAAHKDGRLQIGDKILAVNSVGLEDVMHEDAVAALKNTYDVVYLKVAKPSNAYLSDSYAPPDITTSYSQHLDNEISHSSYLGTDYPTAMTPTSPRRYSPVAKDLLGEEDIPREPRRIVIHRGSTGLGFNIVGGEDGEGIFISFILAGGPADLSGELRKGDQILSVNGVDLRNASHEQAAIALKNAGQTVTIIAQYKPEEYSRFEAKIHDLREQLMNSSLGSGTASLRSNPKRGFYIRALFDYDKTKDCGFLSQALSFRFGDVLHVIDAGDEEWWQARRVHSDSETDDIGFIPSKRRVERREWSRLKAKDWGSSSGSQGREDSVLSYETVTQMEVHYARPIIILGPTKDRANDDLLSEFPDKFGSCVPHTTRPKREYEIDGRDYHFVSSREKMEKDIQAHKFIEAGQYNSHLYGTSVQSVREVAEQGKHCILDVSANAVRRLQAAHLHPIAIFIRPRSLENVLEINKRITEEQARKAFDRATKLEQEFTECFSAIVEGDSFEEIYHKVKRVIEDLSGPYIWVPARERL
substance,measurement,setting,value
GluA1-TARP2,percent of molecules as dimers,GluA1-TARP2,39%
same,percent of molecules as monomers,GluA1-TARP2,19%
same,percent of molecules as tetramers,GluA1-TARP2,2%
same,percent of molecules as trimers,GluA1-TARP2,18%
Halo7-tagged wild-type Neuroligin1 (from UniProt Q99K10 46-843) (receptor),fold of the fraction of the τ2 dwell-lifetime component against mNlg1,[1],2.5 fold
GluA1(ΔNTD)-TARP2,percent of molecules as dimers,GluA1(ΔNTD)-TARP2,45%
same,percent of molecules as monomers,GluA1(ΔNTD)-TARP2,41%
same,percent of molecules as tetramers,GluA1(ΔNTD)-TARP2,14%
